Laboratory results taken from US20240317847A1 (Bayer, published 2024).
Where a chain is given by its changes, count along the chain named. Like-named read-outs stand apart in the source and are kept apart here.

Key:
[1] = target: T1, human IL-11 (human, UniProt P20809 22-199); experiment: cell-based or functional assay
T1 sequence: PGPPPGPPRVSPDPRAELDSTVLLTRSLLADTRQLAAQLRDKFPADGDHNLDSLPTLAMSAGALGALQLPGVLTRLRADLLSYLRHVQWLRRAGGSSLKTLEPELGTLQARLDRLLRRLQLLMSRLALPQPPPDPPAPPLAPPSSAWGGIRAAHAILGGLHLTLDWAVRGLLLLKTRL

[2] = target: T2, murine IL-11 (mouse, UniProt P47873 22-199); experiment: cell-based or functional assay
T2 sequence: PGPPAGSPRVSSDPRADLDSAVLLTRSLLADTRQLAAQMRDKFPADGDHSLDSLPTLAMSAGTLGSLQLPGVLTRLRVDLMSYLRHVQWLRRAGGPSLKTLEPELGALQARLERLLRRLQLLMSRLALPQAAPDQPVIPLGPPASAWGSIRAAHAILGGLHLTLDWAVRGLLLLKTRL

[3] = target: T1, human IL-11; experiment: cell-based or functional assay; remark: listed apart in the source
[4] = target: T2, murine IL-11; experiment: cell-based or functional assay; remark: listed apart in the source
[5] = target: T3, cynomolgus IL-11 (cynomolgus, UniProt P20808 22-199); experiment: cell-based or functional assay
T3 sequence: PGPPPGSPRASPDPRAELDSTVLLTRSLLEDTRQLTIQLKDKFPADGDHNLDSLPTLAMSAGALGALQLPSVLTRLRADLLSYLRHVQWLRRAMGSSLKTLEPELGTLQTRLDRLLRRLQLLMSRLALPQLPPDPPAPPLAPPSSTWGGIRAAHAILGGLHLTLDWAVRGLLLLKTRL

[6] = target: T4, rat IL-11 (rat, UniProt Q99MF5 22-199); experiment: cell-based or functional assay
T4 sequence: T2 sequence with S50N, L84F, G94A, V137A, I138V

[7] = target: T1, human IL-11; experiment: Tri-complex ELISA, hIL-11 + mIL-11Ra-Fc + hgp130-Fc, inhibition of complex formation
Description: In the Tri-complex ELISA format IL-11 antibodies are tested for their ability to inhibit the formation of a complex consisting of murine or human gp130-Fc fusion protein, with murine or human IL-11, and a murine IL11RA-Fc fusion protein. The assay format was adapted according to FIG. 18 (a, b), depending on whether murine or human IL-11 IgG antibodies were tested.
(§1) IgG converted antibodies were subjected to the experimental assay procedure described in Example 19 and IC50 [M], respectively efficacy (%) were calculated accordingly.

[8] = target: T2, murine IL-11; experiment: Tri-complex ELISA, mIL-11 + mIL-11Ra-Fc + mgp130-Fc, inhibition of complex formation
Description: In a first step, 25 μl of goat anti human IgG (Sigma, #12136), diluted 1:1000 in coating buffer (Candor, #121125) was coated on the plate at 4° C. overnight. Next day, the plate was washed one time with 50 μl PBST and then blocked with 50 μl SmartBlock (Candor, #113125) for one hour at room temperature (RT). […] After three additional washes of the coated and blocked microtiter plate with PBS-T, 25 μl of each mixture were added and the assay plate was incubated for one hour at room temperature. After three additional washes, anti-mouse-gp130 biotinylated antibody (R&D, #BAF468) or anti-human gp130 biotinylated antibody (R&D, #BAF228), both 1:1000 in 10% SmartBlock PBS-T, was added and incubated for 1 hour at RT. After three additional washes, a Streptavidin-Peroxidase conjugate (Sigma, #S5512) 1:1000 in SmartBlock PBS-T was added and incubated for one hour at room temperature. After a final three washes, AmplexRed (Fisher Scientific, A12222), 1/1000 in PBS, 0,003% H₂O₂, was added as substrate and incubated for 15 min at RT in the dark. Then, the fluorescence was measured with a plate reader at 535/595 nm. Signals from dose responses were used to calculate IC50 values using GraphPad Prism software. Efficacy was calculated as [(signal measured at lowest antibody concentration−signal measured at the highest antibody concentration)×100] divided by (signal measured at lowest antibody concentration−signal measured in the absence of antibody at an IL11 concentration of 8.2E-11 [M]).
as §1

[9] = target: T5, human IL2Ra (human, UniProt P01589 22-240, limits assumed); experiment: ELISA on coated IL2Ra, signal ratio to isotype control TPP-10159 at 3.3E-7 M antibody
T5 construct: coated on the ELISA plate; also called IL-2 receptor alpha
T5 sequence (looked up): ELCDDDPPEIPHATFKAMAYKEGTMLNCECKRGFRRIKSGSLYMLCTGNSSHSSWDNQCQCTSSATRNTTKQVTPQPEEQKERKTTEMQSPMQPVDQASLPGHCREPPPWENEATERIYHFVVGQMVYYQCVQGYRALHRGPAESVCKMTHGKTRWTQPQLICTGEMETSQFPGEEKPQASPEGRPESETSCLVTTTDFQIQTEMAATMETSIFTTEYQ
Description: IL2RA (Peprotech, Germany, #200-02RC) was coated at 1 or 0 μg/ml (buffer only control) in 30 μl coating buffer (Candor, #113500) per well on a 384 well microtiter plate (Maxisorb, Nunc, #460518) over night at 4-8° C. After two washes with 50 μl/well washing buffer (PBS+0.05% Tween, pH 7.4), the plates were incubated for two hours at room temperature with 50 μl/well SmartBlock (Candor, #113500). After blocking, the plates were washed three times with washing buffer. Then, a dilution series of the respective antibody (1E-7 [M] down to 2E-13 [M]) in PBS+0.05% Tween, 10% SmartBlock were added in 30 μl to the microtiter plate and incubated for 90 min at room temperature. After three additional washes, 30 μl anti mouse IgG HRP-conjugated antibody (Biotechne, HAF007), diluted 1:1000 in PBS+0.05% Tween (pH 7.4), were added per well and incubated for one hour. After three additional washes, a mixture of Amplex red (Invitrogen, #12222, 10 mM stock solution in DMSO) 1:1000 diluted in PBS and H2O2 (30%, Merck, #107209)) diluted 1:10000 in PBS were added as substrate with 30 μl per well and incubated for 20 min in the dark. Relative fluorescence was measured with a microtiter plate reader at 535/590 nm.
IgG converted antibodies TPP-were tested for binding to IL2Ra as described in Example 20. The ratios of the signals obtained at an antibody concentration of 3.3E-7 [M] for IgG converted antibody versus the isotype control TPP-10159 were calculated and are shown in Table E22.

B1: TPP-23580 (antibody, mouse IgG1, kappa)
heavy: EVQLVQSGAEVKKPGASVKISCKASGYTFTDYNMDWVKQAPGQRLEWIGDINPHNGGPIYNQKFTGRATLTVDKSASTAYMELSSLRSEDTAVYYCARGELGHWYFDVWGQGTTVTVSSAKTTPPSVYPLAPGSAAQTNSMVTLGCLVKGYFPEPVTVTWNSGSLSSGVHTFPAVLQSDLYTLSSSVTVPSSTWPSETVTCNVAHPASSTKVDKKIVPRDCGCKPCICTVPEVSSVFIFPPKPKDVLTITLTPKVTCVVVDISKDDPEVQFSWFVDDVEVHTAQTQPREEQFNSTFRSVSELPIMHQDWLNGKEFKCRVNSAAFPAPIEKTISKTKGRPKAPQVYTIPPPKEQMAKDKVSLTCMITDFFPEDITVEWQWNGQPAENYKNTQPIMDTDGSYFVYSKLNVQKSNWEAGNTFTCSVLHEGLHNHHTEKSLSHSPGK
light: DIVLTQSPASLALSPGERATLSCRASKSVSTSGYSYIHWYQQKPGQPPRLLIYLASNLDSGVPARFSGSGSGTDFTLNIHPLEEEDFATYYCQHSRDLPPTFGQGTKLEIKRADAAPTVSIFPPSSEQLTSGGASVVCFLNNFYPKDINVKWKIDGSERQNGVLNSWTDQDSKDSTYSMSSTLTLTKDEYERHNSYTCEATHKTSTSPIVKSFNRNEC
notes: also called BSN 3C6 2.2-2.1-mIgG1Kappa; BSN 3C6 (WO2019238882)
- Efficacy (%), Stat3 reporter gene assay [1]: 68.6%
- IC50, Stat3 reporter gene assay [1]: 8.7 nM
- Efficacy (%), Stat3 reporter gene assay [2]: 46.7%
- IC50, Stat3 reporter gene assay [2]: 28 nM
- Efficacy (%), Stat3 reporter gene assay [3]: 64%
- Efficacy (%), Stat3 reporter gene assay [4]: 88.9%
- IC50, Stat3 reporter gene assay [4]: 7.9 nM
- Efficacy (%), Stat3 reporter gene assay [5]: 21.9%
- Efficacy (%), Stat3 reporter gene assay [6]: 62.2%
- IC50, Stat3 reporter gene assay [6]: 14 nM
- Efficacy (%) [7]: 45.8%
- IC50 [7]: 3.4 nM
- Efficacy (%) [8]: 45.8%
- IC50 [8]: 31 nM
- Antibody/Isotype Control Ratio of IL-2Ra Binding Signals [9]: 2.2 ratio
